# Assay results from paper PMC3141240.
# T1: KSHV SOX (alkaline exonuclease) (Kaposi's sarcoma-associated herpesvirus …, UniProt P88925 1-486)
# T1 sequence: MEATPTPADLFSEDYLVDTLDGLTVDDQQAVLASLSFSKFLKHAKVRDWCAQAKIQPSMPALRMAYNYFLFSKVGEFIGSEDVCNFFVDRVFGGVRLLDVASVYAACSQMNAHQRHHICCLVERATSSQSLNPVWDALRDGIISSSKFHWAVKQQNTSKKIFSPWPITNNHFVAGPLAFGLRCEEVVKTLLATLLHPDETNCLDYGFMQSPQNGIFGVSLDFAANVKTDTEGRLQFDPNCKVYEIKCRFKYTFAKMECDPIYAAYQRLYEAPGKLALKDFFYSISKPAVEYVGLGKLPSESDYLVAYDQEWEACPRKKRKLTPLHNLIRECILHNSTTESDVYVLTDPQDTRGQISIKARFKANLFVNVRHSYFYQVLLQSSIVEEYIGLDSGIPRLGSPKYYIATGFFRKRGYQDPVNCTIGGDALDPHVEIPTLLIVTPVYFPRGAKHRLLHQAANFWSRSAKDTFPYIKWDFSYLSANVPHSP
# Molecular target: T1, KSHV SOX (alkaline exonuclease)
# Assay: fluorescence anisotropy
row,Binder,Kd [µM]
1,"dsRNA-5'P (dsRNA, 5' phosphate on strand 1) RNA 1: UGGUUUACAUGUUCCAAUAUU RNA 2: AAUAUUGGAACAUGUAAACCA",95
2,"dsDNA-5'P (dsDNA, 5' phosphate on strand 1) DNA 1: GGGGATCCTCCCAGTCGACC DNA 2: GGTCGACTAGGAGGATCCCC",6
3,"UGGUUUACAUGUUCCAAUAUU (ssRNA, 5' phosphate) [ssRNA-5'P]",87
